Source: paper PMC8394291, “Identification of TSPAN4 as Novel Histamine H4 Receptor Interactor” (Biomolecules, 2021)

B1: mVenus-TSPAN4 (natural protein, human, UniProt O14817 2-238, looked up)
chain: ARACLQAVKYLMFAFNLLFWLGGCGVLGVGIWLAATQGSFATLSSSFPSLSAANLLIITGAFVMAIGFVGCLGAIKENKCLLLTFFLLLLLVFLLEATIAILFFAYTDKIDRYAQQDLKKGLHLYGTQGNVGLTNAWSIIQTDFRCCGVSNYTDWFEVYNATRVPDSCCLEFSESCGLHAPGTWWKAPCYETVKVWLQENLLAVGIFGLCTALVQILGLTFAMTMYCQVVKADTYCA
notes: tetraspanin 4 (TSPAN4), human; start codon replaced by SpeI-NotI sites coding for a TSAAA linker, mVenus at the intracellular N-terminus; also called mVenus-TSPAN4/pcDNA3.1; source: HEK293T, transiently transfected, in living cells (BRET) and in lysate (co-IP); not shown: mVenus (with TSAAA linker), N-terminal, kept
B2: TSPAN4-mVenus (natural protein, human, UniProt O14817 1-238, looked up)
chain: MARACLQAVKYLMFAFNLLFWLGGCGVLGVGIWLAATQGSFATLSSSFPSLSAANLLIITGAFVMAIGFVGCLGAIKENKCLLLTFFLLLLLVFLLEATIAILFFAYTDKIDRYAQQDLKKGLHLYGTQGNVGLTNAWSIIQTDFRCCGVSNYTDWFEVYNATRVPDSCCLEFSESCGLHAPGTWWKAPCYETVKVWLQENLLAVGIFGLCTALVQILGLTFAMTMYCQVVKADTYCA
notes: tetraspanin 4 (TSPAN4), human; stop codon replaced by SpeI-NotI sites coding for a TSAAA linker, mVenus at the intracellular C-terminus; also called TSPAN4-mVenus/pcDEF3; source: HEK293T, transiently transfected, in living cells; not shown: mVenus (with TSAAA linker), C-terminal, kept

Target: T1, H4R-Nluc (human, UniProt Q9H3N8-1 1-390)
T1 construct: histamine H4 receptor (H4R), human; Nluc fused in frame to the intracellular C-terminal tail; also called H4R-Nluc/pcDEF3; human H4R-Nluc fusion; source: HEK293T, transiently transfected, in living cells; not shown: NanoLuc (Nluc), C-terminal, kept
T1 sequence (Q9H3N8 whole entry, the tested form may be a part): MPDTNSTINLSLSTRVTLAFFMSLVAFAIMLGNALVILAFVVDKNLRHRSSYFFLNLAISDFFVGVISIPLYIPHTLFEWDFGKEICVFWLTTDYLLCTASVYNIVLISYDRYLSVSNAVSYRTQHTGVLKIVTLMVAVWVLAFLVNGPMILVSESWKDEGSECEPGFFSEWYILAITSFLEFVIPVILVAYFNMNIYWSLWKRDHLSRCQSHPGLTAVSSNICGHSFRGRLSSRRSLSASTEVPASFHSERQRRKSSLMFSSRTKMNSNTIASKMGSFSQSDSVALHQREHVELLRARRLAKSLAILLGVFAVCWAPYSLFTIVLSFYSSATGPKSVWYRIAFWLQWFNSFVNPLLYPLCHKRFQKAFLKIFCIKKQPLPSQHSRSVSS
Experiment: FRET or BRET; saturation BRET in living HEK293T cells; constant H4R-Nluc donor (12.5 ng) with 0-500 ng mVenus-tagged TSPAN4 acceptor plasmid; HBSS, 37 °C; vehicle or 10 µM histamine; one site-specific binding fit
Conditions: partners not purified

Row | Binder | BRET50 (vehicle) [mVenus/Nluc ratio] | BRET50 (with 10 µM histamine) [mVenus/Nluc ratio]
1 | B1 | 0.79 | 0.92
2 | B2 | 0.45 | 0.68
